The term Km denotes the substrate concentration at which the rate is half of its maximum.

The values below come from PMC9719028 (Life Science Alliance, 2022).

One data set concerns the target T1, DIRC2-AA (Homo sapiens, UniProt Q96SL1, L14A/L15A).
T1 construct: gene SLC49A4; untagged DIRC2-AA in pCI-neo, N-terminal dileucine motif (E10RQPL14L15) replaced by dialanine, redirected to plasma membrane of transiently transfected COS-7 cells; FLAG-tagged form mostly present as cleaved product
T1 sequence (Q96SL1 1-478 L14A/L15A): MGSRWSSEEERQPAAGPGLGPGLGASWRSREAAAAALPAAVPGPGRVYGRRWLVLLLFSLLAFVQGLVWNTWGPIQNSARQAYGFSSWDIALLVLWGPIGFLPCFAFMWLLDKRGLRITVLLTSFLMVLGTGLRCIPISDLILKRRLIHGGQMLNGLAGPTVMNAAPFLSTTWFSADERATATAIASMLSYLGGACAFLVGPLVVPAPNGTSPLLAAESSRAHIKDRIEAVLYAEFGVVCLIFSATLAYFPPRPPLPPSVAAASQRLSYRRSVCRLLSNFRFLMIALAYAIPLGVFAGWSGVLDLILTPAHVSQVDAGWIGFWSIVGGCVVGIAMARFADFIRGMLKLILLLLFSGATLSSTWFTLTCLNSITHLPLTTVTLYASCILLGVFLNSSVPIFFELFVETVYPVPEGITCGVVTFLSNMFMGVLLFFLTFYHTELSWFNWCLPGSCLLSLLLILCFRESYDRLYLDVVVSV
Briefly: inhibition of specific [3H]pyridoxine uptake in transfected COS-7 cells. The settings on record: 10 nM [3H]pyridoxine, 1 mM test compound, pH 5.0, 37 °C, 1 min. The data set is classed as cell-based.

Substrate in data set [1]: Cc1ncc(CO)c(CO)c1O
Briefly: cells, lysate or membranes. The settings on record: pH 5.0, 37 °C, 1 min, labelled compound.

As to `Cc1ncc(CO)c(C)c1O` [4-deoxypyridoxine], the “% inhibition at 1 mM” value at DIRC2-AA is given as “only 4-deoxypyridoxine other than pyridoxine significantly inhibited the DIRC2-AA–specific uptake”.

B1: EGFP-THTR2 (Homo sapiens) (protein)
chain: MDCYRTSLSSSWIYPTVILCLFGFFSMMRPSEPFLIPYLSGPDKNLTSAEITNEIFPVWTYSYLVLLLPVFVLTDYVRYKPVIILQGISFIITWLLLLFGQGVKTMQVVEFFYGMVTAAEVAYYAYIYSVVSPEHYQRVSGYCRSVTLAAYTAGSVLAQLLVSLANMSYFYLNVISLASVSVAFLFSLFLPMPKKSMFFHAKPSREIKKSSSVNPVLEETHEGEAPGCEEQKPTSEILSTSGKLNKGQLNSLKPSNVTVDVFVQWFQDLKECYSSKRLFYWSLWWAFATAGFNQVLNYVQILWDYKAPSQDSSIYNGAVEAIATFGGAVAAFAVGYVKVNWDLLGELALVVFSVVNAGSLFLMHYTANIWACYAGYLIFKSSYMLLITIAVFQIAVNLNVERYALVFGINTFIALVIQTIMTVIVVDQRGLNLPVSIQFLVYGSYFAVIAGIFLMRSMYITYSTKSQKDVQSPAPSENPDVSHPEEESNIIMSTKL
For the molecule B1, the Km in data set [1] (Hanks' solution with MES) was found to be 20 ± 1 µM.

B2: DIRC2-AA (Homo sapiens; L14A/L15A) (protein)
chain: T1 sequence (Q96SL1 1-478 L14A/L15A)
For the molecule B2, the Km in data set [1] (Hanks' solution with MES (NaCl present), H+-coupled uptake) was 522 ± 63 µM.

B3: EGFP-DIRC2-AA (Homo sapiens; L14A/L15A) (protein)
chain: T1 sequence (Q96SL1 1-478 L14A/L15A)
For B3, the Km in data set [1] (Hanks' solution with MES (NaCl present), H+-coupled uptake, caption names it FLAG-DIRC2-AA once, text says EGFP-DIRC2-AA) is 476 ± 19 µM.
